According to US9205136B2, “Human aminoacyl-tRNA synthetase polypeptides useful for the regulation of angiogenesis” (THE SCRIPPS RESEARCH INSTITUTE, priority 2000, dated 2015):

Experiments:
[1] = system: chick chorioallantoic membrane (CAM); experiment: In vivo angiogenesis assay in chick chorioallantoic membrane (CAM); conditions: 250 ng TyrRS molecule or 25 ng VEGF165 on filter disk, 72 hours
Procedure: In vivo angiogenesis assays were conducted in chick chorioallantoic membrane (CAM) (Nicolaou et al., 1998, Bioorg. Med. Chem. 6:1185-208). Ten-day-old chick embryos were purchased from Mcintyre Poultry (Lakeside, Calif.) and were incubated at 37° C. and 70% humidity. A small hole was made with a small crafts drill (Dremel, Emerson Electric, Racine, Wis.) directly over the air sac at the end of the egg. The embryos were candled to determine a location to drill a second hole directly over embryonic blood vessels. […] A window was cut in the eggshell over the dropped CAM, exposing the CAM to direct access for experimental manipulation. Cortisone acetate-treated 5 mm filter disks were soaked with a particular protein sample (25 ng of VEGF165 or 250 ng of a given TyrRS molecule) and the filter disks added directly to the CAMs, which were relatively devoid of preexisting blood vessels. The windows were sealed with sterile tape and incubated at 37° C. […] After 72 hours, the CAM tissue associated with the filter disk was harvested and quantified using a stereomicroscope. Angiogenesis was assessed as the number of visible blood vessel branch points within the defined area of the filter disks. Each determination shown in FIG. 17 represents the mean from 5-8 embryos.

[2] = biological target: T1, type B receptor (Homo sapiens, UniProt P25025); experiment: Binding to RBL2H3 cells transfected with IL-8 receptor type B; conditions: transfected RBL2H3 rat basophilic leukemia cells; read-out: Kd on cells expressing the type B receptor
T1 construct: expressed in transfected cells; host or cells: RBL2H3 rat basophilic leukemia cells
T1 sequence (P25025 1-360): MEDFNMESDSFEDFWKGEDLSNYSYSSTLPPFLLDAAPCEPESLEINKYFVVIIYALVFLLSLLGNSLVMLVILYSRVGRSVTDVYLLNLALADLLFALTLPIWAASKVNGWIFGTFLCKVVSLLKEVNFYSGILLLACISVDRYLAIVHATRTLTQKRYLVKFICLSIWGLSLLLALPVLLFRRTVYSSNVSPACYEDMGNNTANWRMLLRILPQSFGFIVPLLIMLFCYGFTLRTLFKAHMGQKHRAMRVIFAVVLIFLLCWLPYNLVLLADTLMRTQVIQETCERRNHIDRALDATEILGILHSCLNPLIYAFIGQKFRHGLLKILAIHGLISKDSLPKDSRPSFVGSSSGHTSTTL
Procedure: Following incubation, cells were separated from unbound radioactivity as described herein.
Untransfected RBL2H3 cells express neither the type A nor type B receptors.

[3] = system: PMNs; experiment: PMN chemotaxis assay (ChemoTX microchemotaxis chamber); format: cell-based, human; conditions: for PMN chemotaxis (PMN migration): sample proteins 1 nM, 45 min
How it was run: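 Human PMNs were isolated from healthy-donor blood over Histopaque 1077/1119. 10^4 cells were placed in the upper compartment of a ChemoTX microchemotaxis chamber, with sample protein at 1 nM in the lower compartment. After 45 min, migrated cells were counted as the mean of nine HPFs.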

B1: mini TyrRS: truncated TyrRS, residues 1-364 of full-length TyrRS, amino-terminal catalytic domain (protein)
chain: MGDAPSPEEKLHLITRNLQEVLGEEKLKEILKERELKIYWGTATTGKPHVAYFVPMSKIADFLKAGCEVTILFADLHAYLDNMKAPWELLELRVSYYENVIKAMLESIGVPLEKLKFIKGTDYQLSKEYTLDVYRLSSVVTQHDSKKAGAEVVKQVEHPLLSGLLYPGLQALDEEYLKVDAQFGGIDQRKIFTFAEKYLPALGYSKRVHLMNPMVPGLTGSKMSSSEEESKIDLLDRKEDVKKKLKKAFCEPGNVENNGVLSFIKHVLFPLKSEFVILRDEKWGGNKTYTAYVDLEKDFAAEVVHPGDLKNSVEVALNKLLDPIREKFNTPALKKLASAAYPDPSKQKPMAKGPAKNSEPEEVILEHHHHHH
modifications: His6 tag; Human mini TyrRS in pET20B
notes: truncated TyrRS, residues 1-364 of full-length TyrRS, amino-terminal catalytic domain
- in vivo angiogenesis in chick CAM (blood vessel branch points) [1]: induced angiogenesis
- Kd [2]: > 200 nM
- concentration dependence of PMN migration [3]: bell-shaped concentration dependence
- PMN chemotaxis (PMN migration) [3]: did induce PMN migration
- PMN chemotaxis (PMN migration) ([3]; listed as human mini TyrRS): led to an induction of PMN migration
